In publication PMC7465474, “Interplay of Structural Disorder and Short Binding Elements in the Cellular Chaperone Function of Plant Dehydrin ERD14” (Cells, 2020):

Biological target: T1, citrate synthase (CS) (E. coli (endogenous in AVB101), UniProt P0ABH7 1-427)
T1 sequence (looked up): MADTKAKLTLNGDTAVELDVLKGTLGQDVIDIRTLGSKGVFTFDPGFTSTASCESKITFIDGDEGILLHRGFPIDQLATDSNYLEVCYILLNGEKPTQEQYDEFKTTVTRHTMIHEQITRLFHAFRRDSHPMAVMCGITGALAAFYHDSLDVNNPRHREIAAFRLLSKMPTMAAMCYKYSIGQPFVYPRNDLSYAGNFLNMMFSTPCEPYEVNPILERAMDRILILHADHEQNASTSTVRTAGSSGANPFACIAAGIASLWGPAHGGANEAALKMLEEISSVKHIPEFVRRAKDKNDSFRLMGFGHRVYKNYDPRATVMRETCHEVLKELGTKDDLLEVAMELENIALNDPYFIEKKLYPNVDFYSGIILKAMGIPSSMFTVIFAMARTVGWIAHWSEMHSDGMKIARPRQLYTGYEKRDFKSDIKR
Test: cell-based or functional assay

B1: Early Response to Dehydration 14 (ERD14) of A. thaliana, wild type, biotinylated in the cell (natural protein, UniProt P42763 1-185, looked up)
chain: MAEEIKNVPEQEVPKVATEESSAEVTDRGLFDFLGKKKDETKPEETPIASEFEQKVHISEPEPEVKHESLLEKLHRSDSSSSSSSEEEGSDGEKRKKKKEKKKPTTEVEVKEEEKKGFMEKLKEKLPGHKKPEDGSAVAAAPVVVPPPVEEAHPVEKKGILEKIKEKLPGYHPKTTVEEEKKDKE
modifications: biotin (in-cell biotinylation)
  enthalpy change of unfolding (ΔHm) of 2 μM CS, two-state fit of the CD thermal denaturation, with 2, 5 and 13 μM purified WT ERD14 (396 falling to 316 kJ/mol; CS alone 475 kJ/mol): 94.6 kcal/mol
  melting temperature (Tm) of 2 μM CS, thermal denaturation followed by CD at 220 nm, with 2, 5 and 13 μM purified WT ERD14 (50.5 to 55.3 °C; CS alone 49.5 °C): 55.3 °C
